Data published in patent publication US20210206848A1 (Stanford University, published 2021).

T1: extracellular region of human CD45 (human, UniProt P08575 26-577)
T1 construct: also called hCD45
T1 sequence: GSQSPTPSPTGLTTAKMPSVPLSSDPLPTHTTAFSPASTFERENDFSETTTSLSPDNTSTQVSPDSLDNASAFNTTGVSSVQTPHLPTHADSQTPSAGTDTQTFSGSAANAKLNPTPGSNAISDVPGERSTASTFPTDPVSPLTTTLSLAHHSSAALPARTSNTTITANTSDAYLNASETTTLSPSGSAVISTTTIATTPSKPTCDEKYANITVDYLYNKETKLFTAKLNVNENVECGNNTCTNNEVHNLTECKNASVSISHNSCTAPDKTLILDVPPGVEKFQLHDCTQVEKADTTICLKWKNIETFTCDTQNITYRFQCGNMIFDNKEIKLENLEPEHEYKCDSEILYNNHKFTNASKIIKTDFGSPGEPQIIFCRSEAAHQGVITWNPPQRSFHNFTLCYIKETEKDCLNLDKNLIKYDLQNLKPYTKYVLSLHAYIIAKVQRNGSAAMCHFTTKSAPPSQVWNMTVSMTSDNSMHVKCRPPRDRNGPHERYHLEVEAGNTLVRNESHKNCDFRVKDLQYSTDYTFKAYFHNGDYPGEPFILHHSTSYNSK


What was measured:
[1] = target: T2, extracellular region of human PD-1 (human); assay: SPR
T2 construct: also called hPD-1
T2 sequence (chain, as listed by the source limits assumed): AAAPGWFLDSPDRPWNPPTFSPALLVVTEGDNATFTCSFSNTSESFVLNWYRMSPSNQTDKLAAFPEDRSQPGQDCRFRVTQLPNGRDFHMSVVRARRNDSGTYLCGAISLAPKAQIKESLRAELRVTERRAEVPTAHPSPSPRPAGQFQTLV

[2] = target: T1, extracellular region of human CD45; assay: SPR
[3] = target: T1, extracellular region of human CD45; assay: SPR; target CD45 extracellular region
[4] = target: T2, extracellular region of human PD-1; assay: SPR; target PD-1 extracellular region

Binder | Kd [1] [nM] | Kd [2] [nM] | Kd [3] [nM] | Kd [4] [nM]
CD45-PD1(VHH) (bispecific antibody, Anti-CD45 scFv fused to an anti-human PD-1 nanobody (VHH, from US20170137517A1); also called αCD45-PD1(VHH); 2nd generation anti-human RIPR-PD1) DVQLVESGGGVVQPGGSLRLSCAASGSIASIHAMGWFRQAPGKEREFVAVITWSGGITYYADSVKGRFTISRDNSKNTVYLQMNSLRPEDTALYYCAGDKHQSSWYDYWGQGTLVTVSSGGGSLEVLFQGPGSGSDILLTQSPATLSLSPGERATLSCRASQNIGTSIQWYQQKPGQAPRLLIRSSSESISGISSRFSGSGSGTDFTLTISSLEPEDFAVYYCQQSNTWPFTFGQGTKLEIKGGSTRSSSSGGGGSGGGGQVQLVESGAEVKKPGASVKVSCKASGYTFTNYIIHWVKQEPGQGLEWIGYFNPYNHGTKYNEKFKGRATLTADKSISTAYMELSSLRSEDTAVYYCARSGPYAWFDTWGQGTTVTVSSAAAHHHHHHHH | ~5 | ~700 | – | –
CD45-PD1(Nivo)-Stabilized (bispecific antibody, also called αCD45-PD1(Nivo); αCD45-PD1 (Nivo)) QVQLVESGAEVKKPGASVKVSCKASGYTFTNYIIHWVKQEPGQGLEWIGYFNPYNHGTKYNEKFKGRATLTADKSISTAYMELSSLTSEDTAVYYCARSGPYAWFDTWGQGTTVTVSSGGGGSEIVLTQSPATLSLSPGERATLSCRASQSVSSYLAWYQQKPGQAPRLLIYDASNRATGIPARFSGSGSGTDFTLTISSLEPEDFAVYYCQQSSNWPRTFGQTKVEIKRRADAAAAGGGGSGGGGSGGGGSGGGGTGGGGSQVQLVESGGGVVQPGRSLRLDCKASGITFSNSGMHWVRQAPGKGLEWVAVIWYDGSKRYYADSVKGRFTISRDNSKNTLFLQMNSLTAEDTAVYYCATNDDYWGQGTLVTVSSGGGGSDILLTQSPATLSLSPGERATLSCRASQNIGTSIQWYQQKPGQAPRLLIRSSSESISGISSRFSGSGSGTDFTLTISSLEPEDFAVYYCQQSNTWPFTFGQGTKLEIKAAAHHHHHHHH | – | – | ~300 | ~6
